# Results reported in patent publication US11344542B2, “Treatment of aging-associated disease with modulators of leukotriene A4 hydrolase” (Alkahest, Inc., priority 2018, dated 2022).
# B1: recombinant human LTA4H: Recombinant human LTA4H (Bio-techne, 4008-SN), leukotriene A4 hydrolase enzyme, dosed by tail vein i.v. injection (protein, UniProt P09960 2-611, looked up)
# Leukotriene A-4 hydrolase: PEIVDTCSLASPASVCRTKHLHLRCSVDFTRRTLTGTAALTVQSQEDNLRSLVLDTKDLTIEKVVINGQEVKYALGERQSYKGSPMEISLPIALSKNQEIVIEISFETSPKSSALQWLTPEQTSGKEHPYLFSQCQAIHCRAILPCQDTPSVKLTYTAEVSVPKELVALMSAIRDGETPDPEDPSRKIYKFIQKVPIPCYLIALVVGALESRQIGPRTLVWSEKEQVEKSAYEFSETESMLKIAEDLGGPYVWGQYDLLVLPPSFPYGGMENPCLTFVTPTLLAGDKSLSNVIAHEISHSWTGNLVTNKTWDHFWLNEGHTVYLERHICGRLFGEKFRHFNALGGWGELQNSVKTFGETHPFTKLVVDLTDIDPDVAYSSVPYEKGFALLFYLEQLLGGPEIFLGFLKAYVEKFSYKSITTDDWKDFLYSYFKDKVDVLNQVDWNAWLYSPGLPPIKPNYDMTLTNACIALSQRWITAKEDDLNSFNATDLKDLSSHQLNEFLAQTLQRAPLPLGHIKRMQEVYNFNAINNSEIRFRWLRLCIQSKWEDAIPLALKMATEQGRMKFTRPLFKDLAAFDKSHDQAVRTYQEHKASMHPVTAMLVGKDLKVD
# Legend:
# Format in all cases: in vivo, mouse
# [1] = system: granule cell layer of the dentate gyrus; assay: Histology of labeled proliferating cells (EdU, Ki67, BrdU/DCX) in the dentate gyrus of young mice; settings: for number of Ki67-labeled cells within the granule cell layer of the dentate gyrus: study week 6; for number of BrdU and DCX co-labeled cells within the granule cell layer of the dentate gyrus: BrdU in week 4
# Method: (§1) Brains were collected following saline perfusion and separated by mid-sagittal slice with one-half drop fixed in freshly prepared 4% PFA. PFA was changed to 30% sucrose 24-48 hours later. A second change to 30% sucrose occurred 24 hours later. The second half was dissected into hippocampus and cortex and then snap frozen on dry ice.
# (§2) Brain tissue was sectioned or lysed and analyzed for markers of neurogenesis and aging by standard histological and biochemical methods, including qRT-PCR, Western blot, ELISA, and immunohistochemistry.
# Young, 8-week old wild-type (WT; C57BL/6) mice were homogenized between groups by body weight. Following group determination, mice were injected intraperitoneally (IP) with BrdU (5-bromo-2′-deoxyuridine) formulated in PBS (phosphate buffered saline) at a final concentration of 10 mg/mL dosed at 150 mg/kg for 5 days Immediately following the BrdU dosing, group 1 was injected intravenously (IV) with PBS control and group 2 with recombinant human LTA4H protein daily for 7 consecutive days. One week after the completion of LTA4H administration, in week 3, mice in both treatment groups were injected IP with EdU (5-ethynyl-2′-deoxyuridine) formulated in PBS at a final concentration of 10 mg/mL and dosed at 50 mg/kg for 5 days. Behavioral assays were executed in week 5 and 6, and animals were sacrificed, and tissues collected immediately after completion of behavior testing in week 6. FIG. 3 depicts the treatment paradigm and injection timing for the study.
# (§3) The initial study in young, 8-week old wild-type (WT; C57BL/6) mice was repeated in a second cohort of mice with additional timepoints and readouts. Mice were homogenized between 3 treatment groups by body weight. Group 1 (Vehicle) was injected intravenously (IV) with PBS control 3 times per week for 6 weeks, group 2 (LTA4H Pulse) with recombinant human LTA4H protein daily for 7 consecutive days, and group 3 (LTA4H Continuous) with recombinant human LTA4H protein 3 times per week for 6 weeks. In week 4 after the initiation of dosing, mice in all treatment groups were injected IP with BrdU (5-bromo-2′-deoxyuridine) formulated in PBS (phosphate buffered saline) at a final concentration of 10 mg/mL dosed at 150 mg/kg for 5 days. Behavioral assays were executed in week 5 and 6, and animals were sacrificed, and tissues collected immediately after completion of behavior testing in week 6. FIG. 10 depicts the treatment paradigm and injection timing for the study.
# [2] = system: microglia in the hippocampus; assay: Histology of microglia markers (Iba1, CD68) in the hippocampus of young mice
# Method: as §1, §2
# as §3, with “Behavioral assays were executed in week 5 and 6, and animals were sacrificed, and tissues collected immediately after completion of behavior testing in week 6. FIG. 10 depicts the treatment paradigm and injection timing for the study.” left out
# [3] = system: 8-week old (young) wild-type (C57BL/6) mice; assay: Contextual and cued fear conditioning in young mice treated with recombinant human LTA4H protein
# Method: Mice were brought into the testing room immediately before their trial to avoid exposure to sounds and scents from testing. Day 1: For training, mice were placed in the chambers, bright house light and fan on, for 2 minutes. Then an auditory cue (2000 Hz, 70 dB, conditioned stimulus (CS)) was presented for 30 seconds. A 2 second foot shock (0.6 mA; unconditioned stimulus (US)) was administered for the final 2 seconds of the CS. This procedure was repeated once, each after a 2 minute interval, and the mouse was removed from the chamber 30 seconds after the second shock. The pans, chamber walls and grid floors were cleaned with 70% ethanol between trials. Day 2: Seventy-two hours after the training, the mouse was returned to the same chamber in which the training occurred (memory for context), and freezing behavior was recorded for 3 min. The mouse was returned to its home cage. The pans, chamber walls, and grid floors were cleaned with 70% ethanol between trials. Day 3: 24 hours after context testing, the mouse was returned to the same chamber and freezing was recorded in a novel environment (altered context) and in response to the cue (memory for cue). […] The mouse was placed in the novel environment and freezing was recorded for 2 minutes. The auditory cue (2000 Hz, 70 dB, CS) was then presented for 30 seconds, and freezing was again recorded for 2 minutes. […]
molecule,measurement,setting,value
B1,number of EdU-labeled cells within the granule cell layer of the dentate gyrus,"[1]; paradigm 1, EdU in week 3, vs PBS",significant decrease
same,number of Ki67-labeled cells within the granule cell layer of the dentate gyrus,"[1]; paradigm 1, vs PBS, listed as human recombinant LTA4H protein",significant decrease
same,number of Ki67-labeled cells within the granule cell layer of the dentate gyrus,"[1]; paradigm 1, vs PBS, listed as recombinant LTA4H",fewer Ki67 labeled cells
same,number of BrdU and DCX co-labeled cells within the granule cell layer of the dentate gyrus,[1]; paradigm 2: continuous dosing,significant decrease
same,number of BrdU and DCX co-labeled cells within the granule cell layer of the dentate gyrus,[1]; paradigm 2: pulse dosing,statistical trend towards a decrease
same,average number of Iba1-labeled cells in the hippocampus,"[2]; paradigm 2: pulse dosing, relative to vehicle PBS",significant increase
same,average number of CD68-labeled cells in the hippocampus,"[2]; paradigm 3: 10 days following pulse dosing (IV daily, 7 days), relative to PBS",significant increase
same,percent time freezing during contextual testing,"[3]; 72 hours after training, IV daily for 7 consecutive days, vs PBS",significantly decreased freezing
same,percent time freezing during cued testing,"[3]; pre/post cue tone, difference between treatment groups",no significant difference between treatment groups
